Usually koff stands for the rate constant with which the complex falls apart.

Experimental findings from patent US20170066831A1 (Janssen / Centocor, published 2017) are described below.

The target of assay [1] is T1, human ST2L extracellular domain with C-terminal His6 tag (human, UniProt Q01638 19-328).
T1 construct: also called huST2L-ECD; ST2L-ECD
T1 sequence: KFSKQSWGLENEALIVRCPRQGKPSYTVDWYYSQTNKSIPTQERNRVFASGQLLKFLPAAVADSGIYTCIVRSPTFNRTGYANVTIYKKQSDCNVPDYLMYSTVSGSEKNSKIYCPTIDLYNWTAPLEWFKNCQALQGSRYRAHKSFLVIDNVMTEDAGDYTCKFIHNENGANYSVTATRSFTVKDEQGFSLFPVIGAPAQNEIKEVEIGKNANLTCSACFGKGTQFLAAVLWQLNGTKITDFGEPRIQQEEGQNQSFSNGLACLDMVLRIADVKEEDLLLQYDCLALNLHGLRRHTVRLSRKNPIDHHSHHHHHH
The assay is described as follows: Fab binding to ST2L, method not detailed; parent C2494 Fab, without the D101aA substitution.

Assay [2] concerns the target T1, human ST2L extracellular domain with …. Kind of assay: immunosorbent assay with ECL detection, human-mouse domain-swap constructs. As to the method:
(§1) Antibody binding to ST2L domain I, II and III was determined using standard capture ELISA assay using electrochemiluminescent detection format (Meso-Scale Discovery (MSD) technology). 10 μg/mL of each antibody was coated onto each well of an MSD HighBind plate (5 μL/well) for 2 hr at room temperature. […] The plate was covered with aluminum foil and incubated for 1 hr at room temperature with gentle shaking. The plate was then washed 3 times with HEPES wash buffer. MSD read buffer (150 μl) was added to each well, and the plate was then read using an MSD Sector Imager 6000.

The target of assay [3] is T2, mouse ST2L extracellular domain (mouse, UniProt P14719 28-326).
T2 construct: also called mouse ST2L-ECD; muST2L-ECD
T2 sequence: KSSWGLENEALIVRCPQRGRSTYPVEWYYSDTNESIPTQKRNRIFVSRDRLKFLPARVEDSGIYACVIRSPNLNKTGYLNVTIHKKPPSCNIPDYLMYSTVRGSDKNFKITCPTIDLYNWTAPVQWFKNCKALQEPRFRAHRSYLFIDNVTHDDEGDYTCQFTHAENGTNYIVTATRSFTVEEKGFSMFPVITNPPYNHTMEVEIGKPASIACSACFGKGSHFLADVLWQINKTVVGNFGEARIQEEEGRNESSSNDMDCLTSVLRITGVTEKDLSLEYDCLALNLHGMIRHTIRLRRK
The description is as above. As for the experimental part:
as §1

Assay [4] addresses T1, human ST2L extracellular domain with …. Kind of assay: assayed for binding to human ST2L, method not detailed.

B1: C2494 Fab (Fab, V domains shown)
VH: EVQLQQSVAELVRPGASVKLSCTASAFNIKDDYMHWVKQRPEQGLEWIGRIDPAIGNTEYAPKFQDKATMTADTSSNTAYLQLSSLTSEDTAVYYCALGDFYAMDYWGQGTSVTVSS
VL: ETTVTQSPASLSVATGEKVTIRCITNTDIDDVIHWYQQKPGEPPKLLISEGNTLRPGVPSRFSSSGYGTDFVFTIENTLSEDVADYYCLQSDNMLTFGAGTKLELK
Regarding B1, the koff in assay [1] amounted to 0.000143 s⁻¹.

B2: CNTO3914 (antibody, mouse IgG1, V domains shown)
VH: EVQLVESGGGLLQPGRSLKLSCTASGFIFSHYGMAWVRQAPTKGLEWVSSIITDGTSTYYRDSVKGRFTISRDNAKNTQYLQMDSLRSEDTATYYCARQSDDYFDYWGQGVMVTVSS
VL: DVVLTQTPVSLSVTLGDQASISCKSSQSLEYSDGDSYLEWYLQKPGQSPQLLIYGVSNRFSGVPDRFIGSGSGTDFTLKISRVEPEDLGVYYCFQATHDPFTFGSGTKLEIK
notes: Rat hybridoma C1999 V regions cloned into mouse IgG1 background; also called C1999
Turning to B2, the figures for the binding result in assay [2] and in assay [3] were “no binding” and “binds”, respectively.

B3: STLM189 (antibody, V domains shown)
VH: QVQLVQSGAEVKKPGASVKVSCKVSAFNIKDDYMHWVRQAPGKGLEWMGRIDPAIGNTEYAPKFQDRVTMTEDTSTDTAYMELSSLRSEDTAVYYCATGDFYAMDYWGQGTLVTVSS
VL: EIVMTQSPATLSVSPGERATLSCITNTDIDDVIHWYQQKPGQAPRLLIYEGNTLRPGIPARFSGSGSGTEFTLTISSLQSEDFAVYYCLQSDNMLTFGQGTKLEIK
notes: C2494 HFA mAb: VH STLH195 + VL STLL278 (L2)
For the molecule B3, the binding result in assay [4] was “binds”.
